Sequences and labels used below:
B1: Hairpin Ribozyme (parent)
chain: GUCCUCUUUCACGUGCGCGUGAAAGAGAGAAGUGAACCAGAGAAACACACGUUGUGGUAUAUUACCUGGUA

Variants of B1 are the subject of this data set. Kind of data set: self-cleavage, relative activity (ratio to wild type); higher = more cleavage; co-transcriptional.
GUCCUCUUUCACGUACGCGUGAAAGAGAGAAGUGAACCAGAGAAAUACACGUUGUGGUAUAUUACCUGGUA [G15A C46U]: the self-cleavage amounted to 0.147.
As for GUCCUCUUUCACGUACGCGUGAAAGAGAGAAGUGAACCAGAGAAACACACGUUGGGGUAUAUUACCUGGUA [G15A U55G], the self-cleavage was 0.215.
For GUCCUCUUUCACGUACGCGUGAAAGAGAGAAGUGAACCAGAGAAACACACGUUGAGGUAUAUUACCUGGUA [G15A U55A], the self-cleavage was 0.146.
As to GUCCUCUUUCACGUACGCGUGAAAGAGAGAAGUGAACCAGAGAAACACACGUUGUGGUAUACUACCUGGUA [G15A U62C], the self-cleavage is 0.214.
With GUCCUCUUUCACGUACGCGUGAAAGAGAGAAGUCAACCAGAGAAACACACGUUGUGGUAUAUUACCUGGUA [G15A G34C] the figure was 1.23; with GUCCUCUUUCACGUACGCGUGAAAGAGAGAAGUGAACCAGAGAAACACACGAUGUGGUAUAUUACCUGGUA [G15A U52A], 0.863.
In the case of GUCCUCUUUCACGUACGCGUGAAAGAGAGAAGUGAACCAGAGAAACACACGUUGUGGUAUAUUACGUGGUA [G15A C66G], the self-cleavage is 0.0886.
The figure for GUCCUCUUUCACGUCCGCGUGAAAGAGAGAAGUGAACCAGAGAAACACCCGUUGUGGUAUAUUACCUGGUA [G15C A49C] is 0.101; for GUCCUCUUUCACGUCCGCGUGAAAGAGAGAAGUGAACCAGAGAAACACGCGUUGUGGUAUAUUACCUGGUA [G15C A49G] it is 0.523.
With GUCCUCUUUCACGUCCGCGUGAAAGAGAGAAGUGAACCAGAGAAACACUCGUUGUGGUAUAUUACCUGGUA [G15C A49U], the self-cleavage was 0.102.
For the variant GUCCUCUUUCACGUACGAGUGAAAGAGAGAAGUGAACCAGAGAAACACACGUUGUGGUAUAUUACCUGGUA [G15A C18A], the self-cleavage turned out to be 1.09.
Regarding GUCCUCUUUCACGUACGCGUGAAAGAGAGAAGUGAACCAAAGAAACACACGUUGUGGUAUAUUACCUGGUA [G15A G40A], the self-cleavage is 0.306.
On to GUCCUCUUUCACGUACGCGUGAAAGAGAGAAGUGAACCACAGAAACACACGUUGUGGUAUAUUACCUGGUA [G15A G40C], for which the self-cleavage was found to be 0.112.
With GUCCUCUUUCACGUCCGCGUGAACGAGAGAAGUGAACCAGAGAAACACACGUUGUGGUAUAUUACCUGGUA [G15C A24C] the figure was 1.15.
Take GUCCUCUUUCACGUCCGCGUGAAGGAGAGAAGUGAACCAGAGAAACACACGUUGUGGUAUAUUACCUGGUA [G15C A24G]: the self-cleavage stood at 0.892.
With GUCCUCUUUCACGUCCGCGUGAAAGAGAGAAGUGAACCGGAGAAACACACGUUGUGGUAUAUUACCUGGUA [G15C A39G], the self-cleavage is 0.304.
As to GUCCUCUUUCACGUACGCGUGAAAGAGAGAAGUGAACCAGAGAAACAAACGUUGUGGUAUAUUACCUGGUA [G15A C48A], the self-cleavage is 0.133.
As for GUCCUCUUUCACGUACGCGUGAAAGAGAGAAGUGAACCAGAGAAACAUACGUUGUGGUAUAUUACCUGGUA [G15A C48U], the self-cleavage was 0.0998.
For the variant GUCCUCUUUCACGUACGCGUGAAAGAGAGAAGUGAACUAGAGAAACACACGUUGUGGUAUAUUACCUGGUA [G15A C38U], the self-cleavage turned out to be 0.44.
With GUCCUCUUUCACGUACGCGUGAAAGAGAGAAGUGAACCAGAGAAACACAUGUUGUGGUAUAUUACCUGGUA [G15A C50U], the self-cleavage came out at 0.356.
For GUCCUCUUUCACGUACGCGUGAAAGAGAGAAGUGAACCAGAGAAACACAGGUUGUGGUAUAUUACCUGGUA [G15A C50G], the self-cleavage was 0.219.
Take GUCCUCUUUCACGUACGCGUGAAAGAGAGAAGUGAACCAGAGAAACACAAGUUGUGGUAUAUUACCUGGUA [G15A C50A]: the self-cleavage is 0.28.
In the case of GUCCUCUUUCACGUACGCGUUAAAGAGAGAAGUGAACCAGAGAAACACACGUUGUGGUAUAUUACCUGGUA [G15A G21U], the self-cleavage was found to be 0.841.
GUCCUCUUUCACGUCCGCGUGAAAGAGAGAAGUGAACCAGAGAUACACACGUUGUGGUAUAUUACCUGGUA [G15C A44U]: the self-cleavage worked out at 0.18.
GUCCUCUUUCACGUCCGCGUGAAAGAGAGAAGUGAACCAGAGACACACACGUUGUGGUAUAUUACCUGGUA [G15C A44C]: the self-cleavage is 0.0713.
In the case of GUCCUCUUUCACGUCCGCGUGAAAGAGAGAAGUGAACCAGAGAAACGCACGUUGUGGUAUAUUACCUGGUA [G15C A47G], the self-cleavage was determined as 0.108.
Take GUCCUCUUUCACGUACGCGUGAAAGAGAGAAGUGAACCAGAGAAACGCACGUUGUGGUAUAUUACCUGGUA [G15A A47G]: the self-cleavage turned out to be 0.124.
The figure for GUCCUCUUUCACGUACGCGUGAAAGAGAGAAGUGAACCAGAGAAACUCACGUUGUGGUAUAUUACCUGGUA [G15A A47U] is 0.17.
With GUCCUCUUUCACGUCCGCGUGAAAGAGAGAAGUGAUCCAGAGAAACACACGUUGUGGUAUAUUACCUGGUA [G15C A36U] the figure was 0.505; with GUCCUCUUUCACGUACGCGUGAAAGAGAGAAGUGAACCAGAGAAACACACGUUGUGGUAUAUUACCUGGGA [G15A U70G], 0.838; with GUCCUCUUUCACGUACGCGUGAAAGAGAGAAGUGAACCAGAGAAACACACGUUGUGGUAUAUUACCUGGAA [G15A U70A], 0.689.
On to GUCCUCUUUCACGUACGCGUGAAAGAGAGAAGUGAACCAGAGAAACACACGUUGUGGUAGAUUACCUGGUA [G15A U60G], for which the self-cleavage stood at 0.639.
Turning to GUCCUCUUUCACGUACGCGUGAAAUAGAGAAGUGAACCAGAGAAACACACGUUGUGGUAUAUUACCUGGUA [G15A G25U], the self-cleavage was 0.573.
Consider GUCCUCUUUCACGUACGCGUGAAAGAGAGAAGUGAACCAGAGAAACACACGUUGUGGUAUAUUACCCGGUA [G15A U67C], for which the self-cleavage came to 0.24.
Take GUCCUCUUUCACGUACGCGUGAAAGAGAGAAGUGAACCAGAGAAACACACGUUGUGGUAUAUUACCGGGUA [G15A U67G]: the self-cleavage amounted to 0.234.
On to GUCCUCUUUCACGUCCGCGUGAAAGAGAGAAGUGAAACAGAGAAACACACGUUGUGGUAUAUUACCUGGUA [G15C C37A], for which the self-cleavage turned out to be 0.316.
Turning to GUCCUCUUUCACGUCCGCGUGAAAGAGAGAAGUGAAUCAGAGAAACACACGUUGUGGUAUAUUACCUGGUA [G15C C37U], the self-cleavage came to 0.592.
GUCCUCUUUCACGUACGCGUGAAAGAGAGAAGUGAACCAGAGAAACACCCGUUGUGGUAUAUUACCUGGUA [G15A A49C]: the self-cleavage came out at 0.0193.

(Values after the RNAGym collection of RNA variant scans (doi:10.7554/elife.80360).)
